Source: article PMC3951440, “Assessing Specific Oligonucleotides and Small Molecule Antibiotics for the Ability to Inhibit the CRD-BP-CD44 RNA Interaction” (PLoS ONE, 2014)
pKd: −log10 of the molar value.

What was measured:
[1] = target: CRD-BP (IMP1) (mouse) (UniProt O88477); assay: EMSA; settings: EMSA: 5 mM Tris-Cl pH 7.4, 2.5 mM EDTA, 2 mM DTT, 5% glycerol, 0.1 mg/ml BSA, 0.5 mg/ml yeast tRNA, 5 U RNasin; 30 C with ice steps; 40 nM RNA probe
[2] = target: CRD-BP (IMP1) (mouse) (UniProt O88477); assay: competition; settings: EMSA: 5 mM Tris-Cl pH 7.4, 2.5 mM EDTA, 2 mM DTT, 5% glycerol, 0.1 mg/ml BSA, 0.5 mg/ml yeast tRNA, 5 U RNasin; 30 C with ice steps; 40 nM RNA probe

Sequence of CRD-BP (IMP1) (mouse) (O88477 whole entry): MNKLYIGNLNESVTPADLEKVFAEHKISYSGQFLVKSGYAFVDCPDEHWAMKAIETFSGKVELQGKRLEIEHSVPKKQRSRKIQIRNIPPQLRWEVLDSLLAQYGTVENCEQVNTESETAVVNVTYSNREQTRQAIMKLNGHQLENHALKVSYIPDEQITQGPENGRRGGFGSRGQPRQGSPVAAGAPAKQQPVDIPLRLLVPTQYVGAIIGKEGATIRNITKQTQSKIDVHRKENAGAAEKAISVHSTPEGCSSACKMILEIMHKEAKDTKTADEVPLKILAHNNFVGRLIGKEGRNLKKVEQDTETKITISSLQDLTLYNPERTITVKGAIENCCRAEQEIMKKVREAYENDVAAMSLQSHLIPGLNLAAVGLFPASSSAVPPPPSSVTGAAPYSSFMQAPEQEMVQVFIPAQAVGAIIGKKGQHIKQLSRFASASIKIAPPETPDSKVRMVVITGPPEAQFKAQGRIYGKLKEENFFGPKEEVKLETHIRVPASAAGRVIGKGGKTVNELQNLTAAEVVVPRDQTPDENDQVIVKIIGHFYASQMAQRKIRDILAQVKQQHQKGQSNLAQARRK

Work on “GGAAAUUAGGGCCCAAUUAAUAAUCAGCAAGAAUUUGAUCGUUCCAGUUCCCACUUGGAGGC [P2 RNA]” yielded a binding signal [1] of 5 % bound.

“GGAAAUUAGGGCCCAAUUAAUAAUCAGCAAGAAUUUGAUCGUUCCAGUUCCCACUUGGAGGCCUUUCAUCCCUCGGGUGUGCUAUGGAUGGCUUCUAACAAAAACUACACAUAUGUAUUCCU [P4 RNA]” was tested, and the binding [1] was “no binding”.

“GGAAAUUAGGGCCCAAUUAAUAAUCAGCAAGAAUUUGAUCGUUCCAGUUCCCACUUGGAGGCCUUUCAUCCCUCGGGUGUGCUAUGGAUGGCUUCUAACAAAAACUACACAUAUGUAUUCCUGAUCGCCAACCUUUCCCCCACCAGCUAA [P5 RNA]” gave a binding signal [1] of 15 % bound.

“GGAAAUUAGGGCCCAAUUAAUAAUCAGCAAGAAUUUGAUCGUUCCAGUUCCCACUUGGAGGCCUUUCAUCCCUCGGGUGUGCUAUGGAUGGCUUCUAACAAAAACUACACAUAUGUAUUCCUGAUCGCCAACCUUUCCCCCACCAGCUAAGGACAUUUCCCAGGGUUAAUAGGGCCUGGU [P6 RNA]” was tested, and the binding [1] was “binds”.

“GGAAAUUAGGGCCCAAUUAAUAAUCAGCAAGAAUUUGAUCGUUCCAGUUCCCACUUGGAGGCCUUUCAUCCCUCGGGUGUGCUAUGGAUGGCUUCUAACAAAAACUACACAUAUGUAUUCCUGAUCGCCAACCUUUCCCCCACCAGCUAAGGACAUUUCCCAGGGUUAAUAGGGCCUGGUCCCUGGGAGGAAAUUU [CD44 Fragment 4 RNA]” was tested, and the binding [2] was “binds” and the pKd [1] was 6.19.
